Experimental data as given in US20240383984A1 (Genentech, published 2024).
Blank lines part the entries; values can stand above or below the binder they belong to.

Assays:
[1] = molecular target: T1, cynomolgus FcRH5 (full-length, on cells) (cynomolgus monkey); assay: FACS, SVT2 cells
T1 construct: also called SVT2-Cyno-FcRH5; cyno FcRH5
T1 chain: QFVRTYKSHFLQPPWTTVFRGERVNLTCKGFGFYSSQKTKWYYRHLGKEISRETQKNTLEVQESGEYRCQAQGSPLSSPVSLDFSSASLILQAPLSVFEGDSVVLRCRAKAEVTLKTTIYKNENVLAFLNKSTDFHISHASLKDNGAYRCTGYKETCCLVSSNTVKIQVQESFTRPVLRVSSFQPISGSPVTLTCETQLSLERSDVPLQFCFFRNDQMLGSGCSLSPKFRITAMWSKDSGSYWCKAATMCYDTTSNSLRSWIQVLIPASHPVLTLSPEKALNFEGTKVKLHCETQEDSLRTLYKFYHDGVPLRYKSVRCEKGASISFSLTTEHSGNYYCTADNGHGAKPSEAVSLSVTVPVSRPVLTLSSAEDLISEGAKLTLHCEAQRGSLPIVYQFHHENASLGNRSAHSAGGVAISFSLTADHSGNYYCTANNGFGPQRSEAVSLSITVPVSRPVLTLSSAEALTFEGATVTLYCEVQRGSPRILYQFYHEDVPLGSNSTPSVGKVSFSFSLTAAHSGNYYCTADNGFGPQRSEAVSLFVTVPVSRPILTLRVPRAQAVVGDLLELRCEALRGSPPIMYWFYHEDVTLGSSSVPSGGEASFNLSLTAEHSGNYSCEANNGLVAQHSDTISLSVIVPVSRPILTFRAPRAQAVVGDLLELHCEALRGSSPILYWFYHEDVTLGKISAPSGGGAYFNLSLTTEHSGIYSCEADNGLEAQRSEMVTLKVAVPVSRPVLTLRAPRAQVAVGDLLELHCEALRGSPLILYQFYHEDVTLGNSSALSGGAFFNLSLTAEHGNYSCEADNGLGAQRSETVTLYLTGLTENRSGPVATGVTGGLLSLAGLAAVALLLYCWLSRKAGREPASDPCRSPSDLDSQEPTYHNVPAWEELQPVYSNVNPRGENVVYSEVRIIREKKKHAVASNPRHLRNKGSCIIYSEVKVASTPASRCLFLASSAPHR

[2] = molecular target: T2, cynomolgus FcRH5 protein fragment (soluble) (cynomolgus monkey); assay: SPR (BIACORE), Cyno FcRH5, 1:1 binding model
T2 construct: whole entry named; also called Cyno FcRH5 (BIACORE analyte)
T2 chain: T1 chain

[3] = molecular target: T3, human FcRH5 protein fragment (soluble) (human, UniProt Q96RD9 16-851); assay: SPR (BIACORE), Human FcRH5, 1:1 binding model
T3 construct: whole entry named; also called soluble human FcRH5; Human FcRH5 (BIACORE analyte)
T3 sequence: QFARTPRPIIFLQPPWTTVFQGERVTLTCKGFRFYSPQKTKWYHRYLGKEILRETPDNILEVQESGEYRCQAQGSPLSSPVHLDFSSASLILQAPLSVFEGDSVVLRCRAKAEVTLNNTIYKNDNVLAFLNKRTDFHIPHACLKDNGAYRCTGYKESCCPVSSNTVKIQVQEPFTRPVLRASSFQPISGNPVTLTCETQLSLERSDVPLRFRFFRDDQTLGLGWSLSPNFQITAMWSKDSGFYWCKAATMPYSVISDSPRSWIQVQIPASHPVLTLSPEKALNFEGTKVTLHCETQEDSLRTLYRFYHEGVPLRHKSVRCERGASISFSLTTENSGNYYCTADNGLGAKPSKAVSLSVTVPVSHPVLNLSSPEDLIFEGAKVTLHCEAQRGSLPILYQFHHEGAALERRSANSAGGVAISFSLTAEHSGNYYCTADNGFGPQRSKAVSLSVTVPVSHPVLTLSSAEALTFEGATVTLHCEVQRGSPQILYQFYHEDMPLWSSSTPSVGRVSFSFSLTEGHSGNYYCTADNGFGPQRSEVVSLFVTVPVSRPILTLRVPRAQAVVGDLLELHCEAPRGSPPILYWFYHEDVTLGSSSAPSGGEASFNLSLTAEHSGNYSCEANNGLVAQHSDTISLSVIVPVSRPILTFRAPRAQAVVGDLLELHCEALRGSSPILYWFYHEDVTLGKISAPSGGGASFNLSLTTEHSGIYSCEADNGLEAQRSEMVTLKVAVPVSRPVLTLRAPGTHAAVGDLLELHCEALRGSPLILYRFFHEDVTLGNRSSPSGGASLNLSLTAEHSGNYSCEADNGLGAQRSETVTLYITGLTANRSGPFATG

[4] = molecular target: T2, cynomolgus FcRH5 protein fragment …; assay: SPR (BIACORE), hIgG capture format, 1:1 binding model, monovalent affinity; same numbers as FIG. 10B, Cyno FcRH5 panel
Method: Kinetic characterization experiments were carried out (see Table 8). In these experiments, binding of soluble FcRH5 protein fragment to purified antibodies in human TDB antibody format was analyzed at six different non-zero concentrations (a 1:3 dilution series, one concentration injected twice as a replicate). Flow rate was set at 40 μl/min and association and dissociation monitored for 600 s.

binding result [1]: binds
B1: 17B1 (antibody, mouse IgG2a, V domains shown)
VH: QVQLQQSGPELVRPGVSVKISCKGSGYTFTHYAMHWVKQSHTKSLEWIGMISSSSGNTNFNQKFMDKATMTVDKSSTTAYLELARLTFGDSAIYYCARWSYYALFDYWGQGTTVTVSS
VL: ENVLTQSPAIMSASPGEKVTMTCSADSSVDYIHWYQQKSNTSPKLWIYDTSKLASGVPGRFSGSGSGNSYSLTISSMEAEDFATYYCFQGSGYPLTFGSGTKLELK
notes: mouse mAb, Campaign C; recombinant murine IgG2a for SPR

Kd [2]: 7.82 nM | koff [2]: 0.000455 s⁻¹ | kon [2]: 58200 M⁻¹ s⁻¹ | Kd [3]: 2.08 nM | koff [3]: 0.000746 s⁻¹ | kon [3]: 359000 M⁻¹ s⁻¹ | Kd [4]: 6.76 nM | koff [4]: 0.000847 s⁻¹ | kon [4]: 125000 M⁻¹ s⁻¹
B2: 1G7.v85/38E4.v1 TDB (bispecific antibody, V domains shown)
VH 1: EVQLVESGPGLVKPSETLSLTCTVSGFSLTRFGVHWVRQPPGKGLEWLGVIWRGGSTDYNAAFVSRLTISKDNSKNQVSLKLSSVTAADTAVYYCSNHYYGSSDYALDNWGQGTLVTVSS
VL 1: DIQMTQSPSSLSASVGDRVTITCKASQDVRNLVVWFQQKPGKAPKLLIYSGSYRYSGVPSRFSGSGSGTDFTLTISSLQPEDFATYYCQQHYSPPYTFGQGTKVEIK
VH 2: EVQLVQSGAEVKKPGASVKVSCKASGFTFTSYYIHWVRQAPGQGLEWIGWIYPENDNTKYNEKFKDRVTITADTSTSTAYLELSSLRSEDTAVYYCARDGYSRYYFDYWGQGTLVTVSS
VL 2: DIVMTQSPDSLAVSLGERATINCKSSQSLLNSRTRKNYLAWYQQKPGQSPKLLIYWTSTRKSGVPDRFSGSGSGTDFTLTISSLQAEDVAVYYCKQSFILRTFGQGTKVEIK
notes: knob-into-hole TDB; also called 1G7.v85 TDB; 1G7.v85 (TDB format)
